The record followed here is a protein production outcome set (Wang et al. 2014).

A short description of this series: label from the status in PepcDB records.
As to “MRLDHLRLQNFRCYEDAHFDFQPGFNLVVGVNGSGKTSLLLGVAECLIPYGNAMGQGQEILSKEDVRFVIDRHEGRSRFERKFPVFIRADGDIFDLPNWRAVRLLEPWEGGVDPSSLSHLSAVLARNNAGEQIDFPVLAFYRANRRWSSARISAEFAAQQRTSRFDGYANWFDAVADLRDFESWLIARTLERLQDRLDSTPTVEREDELEWVNRAIRLAIPDAHDLRYDLRLQSLLVDMGEGNAVPFHELSDGQRSLIALIADIARRMCVLNPHIGKDVLANTGGIVIIDELDIHLHPAWQRNIAPTLKKAFPKVQFIATSHSPQVIGSLQPGEVILLKNGDSSHPRATYGLDSSTILEEVMGVPQREPEIEVLLDELFSTLENNELEKARLQLDALKKKAPDLPEFAGAEALLKRKELIGRLEHHHHHH”, the protein production result is “not failed”. As for “ELHAELVKRQHLETFLKTQIESELVDVYFQPIIETRTGNVVKFEALARFYHENSEYSTQEMISIIEDLELIAALDDVVCQTALKQWSHLQKIYGENIGLSINRSLNTKLDSLQVLQRSLDLIKASDVNPKLVTIELTETAYFEQDEEHAFALEQIRQEGIQIAIDDFGTGYSSFSYLEEGQFDVLKIDRKFVKNIHEGSTSYNIVKTITDLAHKLNVEVVAEGVESQRELEVLAGIGVDYMQGFLFSQA”, the entry is “failed”; as for “MYVTKRLSEYKRNPSELTLLPTEGPNSGVLVIQDEESRPTLKCCFVNSFDWELNGLPFPQNTRVIVKRQIGTALYLDPVAFIPVLHQPPSSNLYYVIRGSGKHTGEACVSAKEGDRASCCFCFTYIPEAVPRPLDPFDINQQFEIHQGRSSTKKFFATSVASDGIPPQFLTRKGWSVIFSAPEVEDYGLIDDAKGIVDAKLRYELPDLDNSVVVGKWYVPFLFVKEGDAKDQMYKSMYYSMTLQQRFEEVFFCENVGNNKRFEVVVDVEVETEVVKLEGERIARETQGVNSDGVVWFNASGNEKIGLGSVVLERMKWEEERFGWLNKGYEQRSSIKRTERFEGGGPYWKSYRCYVLVETFELKRTDGSLVLTYEFKHVDKLKSKWD”, “failed”; as for “MRNLKDRVLNSLKGNKKDIKISVVVPTYNTELEGLKNLMASIDKQTMNPDEYELVFVDDGSTTDTYERLQEFAETRPNMTVKQIENSGWGSRPRNIATKMAKGEYILYLDHDDTVFPETFERVYNFGKENNLDVVSGKEVRTNGWSWGWKQFSENNPHAEEMGIECLLPMTPHKFYKREFLLENDITFDDGARVLWEDVYFNSKAFIHGAKVGILADYPTYYWIATGANNSSSFGRDPHEKWNQINKLFNFFKDNIKEQRDLDFMLTHWYRSRVLGILGQWLLKNNNERIDIEFNYAKKLAEELIPAYISENLDKNNQVKDYLLRQGDLDSLKKLAQIDAGITALSYVEDAYFKEDKLFFKTSTKMTYEDKEDFFIEKTADRMERILPEEIKSKLPKEFFDYSDDLAEFTYEPSIKGRNSRATWKIDGSTSNVEVVNKKANLYKIEGEMSFSVQINDYILDAADKKQPWDIATRFTGLGYTSHRALTIGKILIKTALINNKTMIVYKNASGLISLDVGSSVRSIVEDSGVKREQILIDKTSGKVTIPLNEIHVFGESLIEGNAELKPVGISDADPINVKAKLIGEANKARVEVLLGDEKLSGEYHLVTNIQGKKDKQQIKITL”, “failed”. As for “KEALEALVPVTIEVEVPFDLHRYVIGQKGSGIRKMMDEFEVNIHVPAPELQSDIIAITGLAANLDRAKAGLLERVKELQAEQEDRALRSFK”, the entry is “not failed”; as for “MQTVLKKRKKSGYGYIPDIADIRDFSYTPEKSVIAALPPKVDLTPSFQVYDQGRIGSCTANALAAAIQFERIHDKQSPEFIPSRLFIYYNERKIEGHVNYDSGAMIRDGIKVLHKLGVCPEKEWPYGDTPADQKTEEFPPGAPASKKPSDQCYKEARNYKITEYSRVAQDIDHLKACLAAGSPFVFGFSVYNSWVGNNSLPVKIPLPTKNDKLEGGHAVLCVGYDDEIRHFRIRNSWGNNVGENGYFWMPYEYIRNRQLADDFWVIKTVRK”, “failed”.

As to “MDTAVVYYVLATALVLIGLAGVILPALPGLPLVFAGLLVAAWADNFTHIGWVTLVVLGLITALSYLVDFLATLYGAQRVGASKMALWGSVIGGIAGIFFMPIGLFIGPFAGAWLGEYYQTRKSGQATKVGIGTWVGIMLGTATKLALGLCMLGAFAIGWFF”, the protein production result was “failed”.

Consider “MSNSRELGDLLEQIRLGEDSQLEFKRVVFENDKIKGPNGDSLSQEIAAFANAIGGRLILGVDDKTRDVVGIPLDRLDAVSIWLENCVHDRIKPEPTIYLRRRLVPDRSGTEHAVLVIDIPRSLYVHLAPGGYFRRQGSSKHELPPNELLRLMQSRQRAGTLGFDEMPVLGCTQANFDAALYGRFLGTTDEPEELRLRKLKLLVPGEPGEEWASVAGVLMATATPSDWLPQAYVQCVHYAGTEKTAQEQLDAQDIQGPLDQQIRQAAAFVLRGMRTAARKNLGRIDVPQFDPEAVFEAIANAGAHRDYSISGAPVQVHLFTDRLEITSPGALPNSQSVESIALRTATRNELLTNLLARCPVEMEGVGRSRVMEKRGEGVPQILNRSERLSGHRPKFELLGENALRVTLYAADPETSPLLNEAGRGSVGLPHAGFARDDG”, for which the protein production result is “failed”.

As to “EHAKQASSYIPLDRLSISYCRSSGPGGQNVNKVNSKAEVRFHLASADWIEEPVRQKIALTHKNKINKAGELVLTSESSRYQFRNLAECLQKIRDMIAEA”, the protein production entry is “not failed”. As for “MTRTRVIAALVMAPVAMCSILFLPTAWLASLTAIIFLWGLWEWMKLSQVEDTLVRTVLLTLNLLLMVLLVWVSAHSLVLFQIATLIGIAWWILALLWLRFLGFCADPNQRTAKIVKVTAGTLAVIPAWSALVLLHSGDKPGSTFPESLHAHLWLLTAQIMIWAADSGAYFSGRLFGKHKLAPQISPNKTVEGLLGGILTGLAVAAGFGLLNGVTMAQFPSLLLVSFVAILASVIGDLFESLLKRHAGIKDSGSMIPGHGGVLDRIDSTLAALPVFALGKDIFGF”, the entry is “failed”; as for “MIGITQAEAVLTIELQRPERRNALNSQLVEELTQAIRKAGDGSARAIVLTGQGTAFCAGADLSGDAFAADYPDRLIELHKAMDASPMPVVGAINGPAIGAGLQLAMQCDLRVVAPDAFFQFPTSKYGLALDNWSIRRLSSLVGHGRARAMLLSAEKLTAEIALHTGMANRIGTLADAQAWAAEIARLAPLAIQHAKRVLNDDGAIEEAWPAHKELFDKAWGSQDVIEAQVARMEKRPPKFQGA”, “not failed”; as for “MLCCPDPRRRGQHNNRRRNAMPKLHESRIHDLRPTQLTVGMIEVQAKKTHLAAMAPADQQAFMQAHPIPAVLGPGGQLYITDHHHLGRAALDAGVITGYFMVEADLSQHSLDDFWKAMDQNLWVHPLDEHGVRHYYASIPKHLEKLVDDPYRSLAGYVRDAGGYDKTPTAFAEFVWADFFRRSIPIEDLLADFQAAVHAALPLAKSKFAKALPGYNGKLEHHHHHH”, “failed”. As for “MTDYVNYNQERWNRVSARQGNAYTVPLSHEEFLVAKDKPLSVSLTVGKTVPLDWFEKAKGKKLLGLACGGGQQGPISAAHSYETTILDFSKEQLDKDRLVAERENLDLQTVQADMTQAFPFEDESFDIIFCPVSNIYIEDLANMWQESYRVLKKGGLLMVGYMNPWIYVFDADDVWEHPDKTLVPKYSLPFNARQLEEAGQITIDPEYGYEFSHTLEEQIAGQLRAGFAMIDFYESKDSRNRLTQFASDYLANLSMKW”, the entry is “failed”; as for “MPLSYSSPSLSEERSDDPSKYDGDFGVPQICFCGKQLELVERLIGDQKKTFLKCPMSGQDDNYHVDKGWDLVVHEQCFCIDKRFGEHRELIQNAFKFGGDSNRLQINQIRAEIEDLKDRLDKKDAEITRLMDALGKK”, “failed”; as for “MFISCIILINYSYIFGKNIRYLYEFKVIWKSNNSLILFFIEFDRNFMTIKFKLFKCRRLNILIELINIENYFRNGNILCFIFNIPSIPRNLLINVFLTSSNKVNISIQGLKLEHHHHHH”, “failed”. Then “MTADGRGRIDAAFRGRLGRFVLDASLSVPATGVTAIFGPSGCGKTTIARCIAGLQRLSDGFCAIDGEIWQDGMAFRPAHRRPVGYVFQEPSLFPHLSVRGNLLYGAPKAAATSIGFDEVVELLGLTALLGRSPHRLSGGERQRVAIGRALLSQPRLLLMDEPLAALDRTTKNEILPFLERLHERLSLPVLYISHDMAEIERFADYLVLMERGRVVGAGPLHILQSDPALPLAYSRDAAVSIDGLVEAYDERYGLLTLAVNGGLLHVPSHRIAVGARQRLRIAASDVSIVRARPSESSILNILPARIVTQSPPGAGEVTIVLGLDSDGSGAPILSRISSRSRDLLGLSDGMAVFAQVKGVSLVRASGCAIGNMGPTAPGQLDHCSTQDTGVRSEAGTTAMPIDFAEIDPNRVAAILYRPQDDLDTLLADFAQDLVRAGERIGGIVQRNIKDGSGCQVGMQAIDLMTGREISICQPLGSGAMACKLDAAGLADASVAVASAIAQDVDLIVINKFSKQEAAGRGLRDELAGAIAAGIPVLTAVPEKCFEAWISFTGGIGTTLLCERQVIEAWWRDTSSRMKRMREDHDAVVAQCIEISGALPLVQRVVARQLVVTHDLPLDPERAEAEVVVRGVVERTNVEVLDGAADEADEAPDAGFPVGPERIERLPDIGPVPRRHEALQVEREVLSPDACLQRSAGERVDVFKEGKTKVGTVLVDRGDAELVEGPIVLELHEGAPVLVEMNVGVDLQTLYEIAVRGRVAGAERRCAIGLEAFAQRRPQRDVAFRIGGPKRDVFEPVKRFGTQPGIGKDRPVLCPAVRLDRRPLGDRSVLGPREPDAGAKGRKRQNDPEVAHIAPCQHRRTSPHLASARDALFGPREWISATYPPGNMTNAADRLLDV”, with “failed”; and “MDAKVAFSPHSDANGRLDEIGADIDTAQSSVLFSLAFLGQMTRGAIGPALGRALERPEVHVMGIADAEVRAGNLGLNVLTPDNRRRVVRAAALTGNVPPPFLTEPSGLAGVDGNQRGTRMHHKFVVLDFDKPTARVYLGSYNFSNPADDENGENLVVVRDRTVATSYMIEALRMYDHLEHHHHHH”, with “failed”.

Regarding “HKEFAVTMRPTEASERCHLRGSYTLRAGESALELWGGPEPGTQLYDWPYRFLRRFGRDKVTFSFEAGRRCVSGEGNFEFETRQGNEIFLALEEAISAQKN”, the protein production result was “not failed”. Then “MKKALISTLFGVSLAFAKPYTIDKANSSVWFEVKHFTFNETRGAFDNFDGKIDLEPNTKMLSVFEGNIDVKSVNTRDRKRDNHLKTADFFDVVKYPKGSFKMTKYEDGKIYGDLTLRGVTKPVVLEAKIQAPLQNPMNKKEFMVLQAEGKINRKDFGIGKTFSDAVVGDEVKIELKLEAYAQ”, with “failed”; and “MMKDMTTGNPTKLIFLFAMPMLIGNLFQQFYTMIDAVIVGKFVSVDALAAVGATNSVNFFMISLIIGLMSGISVVVAQYFGFKDYDRLKDVIATATYAVVFSAIILTVAGVLLAKPLLILLRTPANILDDSTIFLTTLFIGILPMSLYNGMAAILRALGNSITPLIFLILSSLMNIALDFLFVVYMDMGVRGAAIATVLSQTAAAIAVIYYAYRHVPFMRIERAKFKLSTPLLKEMVRIGLPSGLQGSFISIGNMALQSLINGFGSSVVAAYTAASRIDSLTYQPGIAFGAASSMFAGQNIGAGKIDRVREGFWSGIKVVTAISIGITILVQLFARQFLLLFVDSSETEVINIGVSYLLIVSLFYVVVGILFVVRETLRGTGDAMVPLAMGIFELVSRLVIGFVLSLYIGYVGLWWATPVAWITATILGVWRYKSGAWQKKAVIRRK”, with “not failed”.
